B1: LYV378 (chimeric antibody, 9F12D9 in human IgG4SP / human kappa) (antibody, V domains shown)
VH: EVHLVESGGGLVQPGRSLKLSCAASGFTFTNYGLHWIRQAPTKGLEWVASISPSGGVTYYRDSVKGRFTISRDNGKTTLHLQMDSLRSEDTATYYCALPFLGWGGANWIAHWGQGTLVTVSS
VL: DIQMTQSPASLSASLGETVSIECLASEDISNDLAWYQQKSGKSPQLLIYFVDRLLDGVPSRFSGSGSGTRHSLKISGMQPEDEADYFCQQSYKYPPTFGGGTKLELKR
notes: Human IgG4 S228P and human kappa; elsewhere it is 9F12D9; also called 9F12D9 chimeric; 9F12D8
B2: LYV379 (chimeric antibody, 17C5C2 in human IgG4SP / human kappa) (antibody, V domains shown)
VH: EVHILETGGGLVKPGGSLGLSCTTSGFNFNDYFMNWVRQAPGKGLEWVAQIRNGNYDYAAYYAESLEGRVTISRDDSKSSVNLQVSSLRAEDTAIYYCTSYYYDGHFDYFDNWGHGVMVTVSS
VL: DIKVTQSPSFLSASVGDRATINCKASQNLNKYLNWYQQKPGEPPKLLIYNTDNLYTGIPSRFSGSGSVADFTLTISGLQPEDVATYFCMQHNVRRTFGGGTKLELKR
notes: Human IgG4 S228P and human kappa; also called 17C5C2 chimeric
B3: LYV391 (chimeric antibody, 36G7B8 in hG4SP / human kappa) (antibody, human IgG4 S228P, kappa, V domains shown)
VH: QVQLQQPGAELVRPGASVKLSCKASGYIFISYWIHWLKQRPGRGLEWIGRIDPNNGGTKYNEKFRYKASLTVDKSSSTAYMQLSSLTSEDSAVYYCTKGVITTLVAGDYWGQGTTLTVSS
VL: DVVMTQIPLSLPVSIGDQASISCRSSQSLVYSYGNTYLHWFLQKPGQSPKLLIYNVSNRFSGVPDRFSGSGSGTDFTLRISRVEAEDLGVYFCSQGTHVPWTFGGGTKLEIKR
notes: Human IgG4 S228P and human kappa; also called 36G7B8 chimeric; 366788 (LYV391)
B4: LYV376 (chimeric antibody, 19G6D6 in human IgG4SP / human kappa) (antibody, V domains shown)
VH: EVQLQQSGPELVKPGASVKIPCKASGYTFTDYNMDWVKQSHGKSLEWIGDINPNNDISIYNQKFRGKATLTVDKSSSTAYMELRSLTSEDTAVYYCARRFAYWGQGTLVTVSA
VL: EIVLTQSPTTMAASPGEKITITCSASSSISSNYLHWYQQKPGSSPKVLIYRTSNLASGVPVRFSGSGSGTSYSLTIGTMEAEDVATYYCQQGSSIPYTFGGGTKLEIKR
notes: also called 19G6D6 chimeric; 1966D6 (LYV376)
B5: LYV377 (chimeric antibody, 13F1A7 in human IgG4SP / human kappa) (antibody, V domains shown)
VH: EVQILETGGGLVKPGGSLRLSCATSGFNFNDSFMNWVRQAPGKGLEWVAQIRNKNYNYATYYTESLEGRVTISRDDSKSRVYLQVSSLRAEDSAVYYCTSYYYDGFADYFDYWGQGVMVTVSS
VL: DIKMTQSPSFLSASVGDSVTFTCKASQNIYIYLNWYQQKFGEAPKLLIYNTNNLQTGIPSRFSGSESGTVFTLTISSLQPEDVATYFCLQHSSRRTFGGGTKLELKR
notes: Human IgG4 S228P and human kappa; also called 13F1A7 chimeric; LTV377

Tests used:
[1] = molecular target: T1, human CD40-His tag protein (Sino Biological Inc. Cat #10239-H08E) (human, UniProt P25942 21-193); assay: ELISA, plate coated with human CD40-His at 1 ug/ml, anti-human IgG-HRP, A450
T1 construct: also called human CD40 protein; CD40 protein; not shown: His tag
Method: CD40 protein (human CD40-His tag protein (Sino Biological Inc. Cat #10239-H08E) or rhesus monkey CD40-His (Sino Biological Inc. Cat #90097-C02H) was diluted in PBS to 1 ug/ml and used to coat an ELISA plate (Corning, Cat #9018, high binding) at a concentration of 50 ul/well. The plate was incubated overnight at 4° C. The plate was then decanted and washed with PBS-T, and 200 μl/well assay diluent (1×PBS/1% BSA/0.05% Tween-20/0.05% proclin 300) was added. After a 3 hour incubation at room temperature, the plate was washed with PBS-T three times. The testing antibodies were diluted in assay diluent to 0, 0.000003, 0.00003, 0.0003, 0.003, 0.03, and 0.3 ug/ml or approximately 0, 0.00002, 0.0002, 0.002, 0.02, 0.2 and 2 nM and then added to the plate (50 ul/well). The plate was incubated for one hour at 37° C. and then washed three times with PBS-T. Anti-human IgG-HRP conjugate (Bethyl Cat #A80-319P) at a 1:10,000 dilution was added to the plate (100 ul/well). The plate was incubated for 0.5 hour at 37° C., followed by washing with PBS-T three times. The TMB substrate solution was added (100 ul/well). The color was allowed to develop for 8 minutes before it was stopped with 100 ul/well 2N H₂SO₄. Absorbance at 450 nm was determined with an ELISA reader.

[2] = molecular target: monkey CD40 protein (plate coat of the ELISA of Fig. 5) (cynomolgus monkey per paragraph 23; rhesus …); assay: ELISA on monkey CD40 protein coated on the plate, anti-human IgG-HRP, A450

T1 sequence (P25942 21-193 limits assumed, stated change not applied): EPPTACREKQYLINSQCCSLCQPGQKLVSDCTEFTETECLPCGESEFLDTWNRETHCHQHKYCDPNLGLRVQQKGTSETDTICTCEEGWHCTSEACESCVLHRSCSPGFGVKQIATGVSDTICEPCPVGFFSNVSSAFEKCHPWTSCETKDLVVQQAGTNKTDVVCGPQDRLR

| Binder | EC50 (read off the curve) [1] [ng/mL] | EC50 (read off the curve) [2] [ng/mL] |
| --- | --- | --- |
| B1 | ~4 |  |
| B2 | ~20 | ~5 |
| B3 | ~20 |  |
| B4 | ~3 |  |
| B5 | ~4 |  |

Reference: patent US20210179727A1 (LYVGEN BIOPHARMA, published 2021)
